Results as given in the Immune Epitope Database (IEDB).

Key:
[1] = target: HLA-B*08:01; assay: IEDB peptide-MHC binding, purified MHC/competitive/radioactivity; filed as Kd, often an IC50 or EC50 that approximates it; ≥ and ≤ were set here for values at or beyond the usual limits of such assays
[2] = target: HLA-A*01:01; assay: IEDB peptide-MHC binding, purified MHC/direct/fluorescence; filed as Kd, often an IC50 or EC50 that approximates it; ≥ and ≤ were set here for values at or beyond the usual limits of such assays
[3] = target: HLA-A*03:01; assay: as above
[4] = target: HLA-A*11:01; assay: as above
[5] = target: HLA-B*15:01; assay: as above; conditions: source organism: SARS-CoV1
[6] = target: HLA-B*27:05; assay: as above; conditions: source organism: SARS-CoV1
[7] = target: HLA-A*23:01; assay: IEDB peptide-MHC binding, purified MHC/competitive/radioactivity; filed as Kd, often an IC50 or EC50 that approximates it; ≥ and ≤ were set here for values at or beyond the usual limits of such assays
[8] = target: HLA-A*24:02; assay: as above
[9] = target: HLA-A*26:01; assay: as above
[10] = target: HLA-A*29:02; assay: as above
[11] = target: HLA-A*30:02; assay: as above
[12] = target: HLA-B*53:01; assay: as above
[13] = target: HLA-A*01:01; assay: as above
[14] = target: HLA-A*69:01; assay: IEDB peptide-MHC binding, purified MHC/direct/fluorescence; filed as Kd, often an IC50 or EC50 that approximates it; ≥ and ≤ were set here for values at or beyond the usual limits of such assays; conditions: source organism: Homo sapiens
[15] = target: HLA-B*07:02; assay: as above; conditions: source organism: Homo sapiens
[16] = target: HLA-B*58:01; assay: as above; conditions: source organism: Homo sapiens
[17] = target: HLA-B*40:01; assay: IEDB peptide-MHC binding, purified MHC/competitive/radioactivity; filed as Kd, often an IC50 or EC50 that approximates it; ≥ and ≤ were set here for values at or beyond the usual limits of such assays
[18] = target: HLA-B*44:02; assay: as above
[19] = target: HLA-B*44:03; assay: as above
[20] = source organism: Vaccinia virus WR
[21] = source organism: SARS coronavirus Tor2
[22] = source organism: Dengue virus 3 Martinique/1243/1999
[23] = source organism: Lassa virus Josiah
[24] = source organism: Mammarenavirus choriomeningitidis
[25] = source organism: Dengue virus 1 Brazil/97-11/1997
[26] = source organism: Dengue virus 4 Philippines/H241/1956
[27] = source organism: Mammarenavirus whitewaterense
[28] = source organism: Mammarenavirus guanaritoense
[29] = source organism: Dengue virus 2 Jamaica/1409/1983

ALLSRFFNM was tested, and the Kd [1, 20] was 2.96 nM.

In the case of RVDFCGKGY, the Kd ([2]; source organism: SARS-CoV1) is reported as 1000 nM, the Kd ([3]; source organism: SARS-CoV1) is reported as 1890 nM and the Kd ([4]; source organism: SARS-CoV1) is reported as 7730 nM. The Kd [5] was 1090 nM, the Kd [6] was 3890 nM and the Kd [7, 21] was at least 77800 nM. It also gave a Kd [8, 21] of at least 77600 nM, a Kd [9, 21] of 7680 nM and a Kd [10, 21] of 9230 nM. It also gave a Kd [11, 21] of 20 nM.

LATGPITTLW gave a Kd [12, 22] of 78.6 nM.

FDEISMATNY was tested, and the Kd [13, 21] was 13000 nM, the Kd [7, 21] was at least 70000 nM and the Kd [8, 21] was at least 70300 nM. The Kd [9, 21] was 699 nM, the Kd [10, 21] was 18.4 nM and the Kd [11, 21] was 4100 nM.

Sequence VRQMEGEGVL has a Kd ([1]; source organism: Dengue virus 3 Sri Lanka/1266/2000) of 1710 nM.

Work on RPAKSMDSL yielded a Kd [14] of 5060 nM, a Kd [15] of 146 nM and a Kd [16] of 18800 nM.

LWLLWPVTL was tested, and the Kd [13, 21] was at least 78100 nM, the Kd [7, 21] was 7.42 nM and the Kd [9, 21] was at least 77900 nM. For the same sequence, the Kd [10, 21] was 1840 nM and the Kd [11, 21] was 5030 nM.

SDAHKKNLY gave a Kd [13, 23] of 1120 nM, a Kd [7, 23] of at least 77700 nM and a Kd [8, 23] of at least 77500 nM. For the same sequence, the Kd [9, 23] was at least 77900 nM, the Kd [10, 23] was at least 69700 nM and the Kd [11, 23] was 1640 nM.

Work on WCSQTDYQY yielded a Kd [13, 24] of 1160 nM, a Kd [7, 24] of at least 77700 nM and a Kd [8, 24] of at least 77500 nM. For the same sequence, the Kd [9, 24] was at least 77900 nM, the Kd [10, 24] was 258 nM and the Kd [11, 24] was 342 nM.

Sequence SNKRKVLAI has a Kd [1, 20] of 1.85 nM.

SPLSKCVVV was tested, and the Kd [1, 20] was 30.9 nM.

For HLRVLFSIF, the Kd [1, 20] was 4.66 nM.

In the case of FCSHHFHQL, the Kd [1, 25] is reported as 178 nM.

FRYVFFEII showed a Kd ([1]; source organism: Vaccinia virus Copenhagen) of 208 nM.

LATGPLTTLW gave a Kd [12, 25] of 98.4 nM.

MVKPKGKVV showed a Kd [1, 26] of 44.6 nM.

KSFEIDKGIY showed a Kd [13, 21] of 780 nM, a Kd [7, 21] of at least 70000 nM and a Kd [8, 21] of at least 70300 nM. For the same sequence, the Kd [9, 21] was 5510 nM, the Kd [10, 21] was 984 nM and the Kd [11, 21] was 4.75 nM.

TPELEEEMF was tested, and the Kd [12, 22] was 1970 nM.

AFKNKRLVF gave a Kd [1, 20] of 1560 nM.

With FPRSMLSIF the Kd [1, 20] was 9.88 nM.

For AEYTNSVTNI, the Kd [17, 26] was 158 nM, the Kd [18, 26] was 280 nM and the Kd [19, 26] was 51.6 nM.

In the case of VKMPTHRHI, the Kd [13, 24] is reported as at least 78100 nM, the Kd [7, 24] is reported as at least 77700 nM and the Kd [8, 24] is reported as at least 77500 nM. It also gave a Kd [9, 24] of at least 77900 nM, a Kd [10, 24] of at least 78900 nM and a Kd [11, 24] of at least 76900 nM.

Work on RYNTRGNTY yielded a Kd [13, 21] of 13900 nM, a Kd [7, 21] of 8930 nM and a Kd [8, 21] of 1790 nM. The Kd [9, 21] was at least 52200 nM, the Kd [10, 21] was 1770 nM and the Kd [11, 21] was 31.3 nM.

LMLVALLGAM was tested, and the Kd [1, 26] was 7190 nM.

Work on FPQSNAVIQ yielded a Kd [12, 25] of 527 nM.

With YQPESQKFI the Kd [7, 27] was 7210 nM, the Kd [8, 27] was 8480 nM and the Kd [10, 27] was 3390 nM.

In the case of AYTSSDDEI, the Kd [7, 27] is reported as 1580 nM, the Kd [8, 27] is reported as 4870 nM and the Kd [10, 27] is reported as 1590 nM.

Work on FYFTNDVSFL yielded a Kd [13, 21] of 2000 nM, a Kd [7, 21] of 59.2 nM and a Kd [8, 21] of 47.5 nM. For the same sequence, the Kd [9, 21] was 9340 nM, the Kd [10, 21] was 384 nM and the Kd [11, 21] was at least 34200 nM.

Sequence KYILIQAGF has a Kd [7, 28] of 1.77 nM, a Kd [8, 28] of 11.9 nM and a Kd [10, 28] of 3740 nM.

RLKTRIRNL was tested, and the Kd [1, 20] was 0.694 nM.

In the case of MTTEDMLSVW, the Kd [9, 25] is reported as 2090 nM and the Kd [12, 25] is reported as 856 nM.

Work on LLKLGFEEI yielded a Kd [1, 20] of 510 nM.

Sequence ILGPPGSVY has a Kd ([2]; source organism: Homo sapiens) of 6420 nM, a Kd ([3]; source organism: Homo sapiens) of 852 nM and a Kd ([4]; source organism: Homo sapiens) of 1660 nM. For the same sequence, the Kd [15] was at least 33100 nM and the Kd [16] was 326 nM.

SINVKHTSV was tested, and the Kd [1, 20] was 13.3 nM.

Sequence VWKSGILQLF has a Kd [7, 28] of 16.5 nM, a Kd [8, 28] of 62.6 nM and a Kd [10, 28] of 2560 nM.

With NRRRRTAGV the Kd [1, 29] was 121 nM.

With VEMGEAAGI the Kd [17, 29] was 268 nM, the Kd [18, 29] was 26.5 nM and the Kd [19, 29] was 206 nM.
